# Molecular target: Flag-Mettl8 (Flag-tagged human Mettl8, wild type) (UniProt Q9H825)
# Sequence (Q9H825 other isoform, or with tags, fused parts or gaps): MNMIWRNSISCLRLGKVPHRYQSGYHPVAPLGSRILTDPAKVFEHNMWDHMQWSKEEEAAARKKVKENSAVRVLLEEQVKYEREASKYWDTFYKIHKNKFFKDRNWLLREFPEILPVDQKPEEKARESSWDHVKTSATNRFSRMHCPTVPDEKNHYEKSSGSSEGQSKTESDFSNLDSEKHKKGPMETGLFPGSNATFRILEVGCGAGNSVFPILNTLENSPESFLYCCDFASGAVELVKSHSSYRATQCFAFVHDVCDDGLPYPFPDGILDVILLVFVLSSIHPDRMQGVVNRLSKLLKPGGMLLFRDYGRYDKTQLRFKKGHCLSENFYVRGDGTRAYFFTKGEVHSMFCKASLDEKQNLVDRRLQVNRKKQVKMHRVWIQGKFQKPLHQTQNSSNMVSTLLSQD
substance,measurement,value
Endogenous ATM,"pS/TQ phosphorylation after 10 Gy irradiation (Flag IP, immunoblot)",pS/TQ phosphorylation was detected on wild type Mettl8 upon irradiation

# From patent US20200222444
